Measurements as given in article PMC4758025, “Critical Assessment of Protein Cross-Linking and Molecular Docking: An Updated Model for the Interaction Between Photosystem II and Psb27” (Frontiers in Plant Science, 2016).

B1: recombinant Psb27 (natural protein, T. elongatus, UniProt Q8DG60 22-134, looked up)
chain: CANVPTGLTGNFREDTLALISSLREAIALPENDPNKKAAQAEARKKLNDFFALYRRDDSLRSLSSFMTMQTALNSLAGHYSSYPNRPLPEKLKARLEQEFKQVELALDREAKS
notes: by the printed primers the natural stretch begins ANVPT and ends REAKS; No lipid modification, as the N-terminal cysteine is missing; the His tag is inferred; source: E. coli Overexpress C43, purified (IMAC, ResourceS ion exchange)

What was measured:
Conditions in all cases: both partners purified
recombinant Psb27 = biological target: B1; test: SPR; Biacore 3000, CM5 chip; Im7 fusion proteins captured on covalently bound DNase E7; Psb27 injected from 50 μM to 100 nM for 60 s in MBS-EP (20 mM MES, 150 mM NaCl, 3 mM EDTA, 0.05% Surfactant P20, pH 6.5), 30 μl/min, 298 K; steady-state responses fitted to a one-site binding isotherm
[1] = biological target: T1, Im7-tagged lumenal domain of CP47 (residues 271-446) (UniProt Q8DIQ1 271-446); test: as above
T1 construct: CP47 (PsbB) of photosystem II, lumenal domain, residues 271-446; also called CP47 domain; source: cell-free expression (RTS100 system), purified on the chip

[2] = biological target: T2, CP43 in the monomeric Psb27-PSII intermediate complex (T. elongatus (endogenous), UniProt Q8DIF8 1-461); test: cross-linking; isolated monomeric Psb27-PSII complex without PsbO, PsbU and PsbV (2.4 μM) with a 1:1 mixture of BS3-H12/D12 (5 mM), 30 min on ice, 20 mM MES/NaOH, 10 mM CaCl2, 0.03% dodecyl-β-D-maltoside, pH 6.5; trypsin, LC-ESI-MS/MS, StavroX; found in light and heavy form
T2 construct: CP43 (PsbC) of photosystem II of T. elongatus; source: endogenous, Psb27-PSII complex isolated from wild-type T. elongatus

T1 sequence (Q8DIQ1 271-446): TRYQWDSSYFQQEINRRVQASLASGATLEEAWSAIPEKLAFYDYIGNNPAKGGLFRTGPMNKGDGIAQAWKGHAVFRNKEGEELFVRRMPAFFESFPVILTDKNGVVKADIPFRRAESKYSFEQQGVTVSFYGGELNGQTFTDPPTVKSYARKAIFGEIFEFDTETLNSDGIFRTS

Binder	Kd (recombinant Psb27)	further results
Im7-tagged C-terminal lumenal domain of D2 (residues 294-352) (domain or fragment, D2 (PsbD) of photosystem II, C-terminus, residues 294-352; source: cell-free expression (RTS100 system), purified on the chip) not shown	~100 µM	–
Im7-tagged mature D1 C-terminus (mD1, residues 295-344) (domain or fragment, D1 (PsbA) of photosystem II, mature C-terminus, residues 295-344; source: cell-free expression (RTS100 system), purified on the chip) not shown	34 µM	–
B1	–	Kd [1]: ~100 µM
Psb27 in the monomeric Psb27-PSII intermediate complex (natural protein, T. elongatus (endogenous), UniProt Q8DG60 22-134, looked up, N-terminal lipid modification, Psb27 of T. elongatus (tll2462), as it stands in the isolated Psb27-PSII complex; source: endogenous, Psb27-PSII complex isolated from wild-type T. elongatus) CANVPTGLTGNFREDTLALISSLREAIALPENDPNKKAAQAEARKKLNDFFALYRRDDSLRSLSSFMTMQTALNSLAGHYSSYPNRPLPEKLKARLEQEFKQVELALDREAKS	–	binding result [2]: binds
Im7-tagged lumenal domain of CP43 (residues 293-424) (domain or fragment, Im7 fusion carrier omitted. Printed 293-424 taken as PDB 3ARC numbering, which is UniProt +12: printed K381, K339 and D383 then correspond to entry K369, K327 and D371, and the range spans the …) not shown	21 µM	–
